The target of the assay is recombinant OsLIKE1-KD from E. coli (GST-OsLIKE1-KD and OsLIKE1-KD-His) (rice). Briefly: native gel or EMSA. On the technique in general: Mobility shift assays separate free from complexed probe on a gel.

In the case of “recombinant OsLIKE1-KD from E. coli (GST-OsLIKE1-KD and OsLIKE1-KD-His) (domain or fragment)”, the stoichiometry N amounted to 2.

Broadly, the stoichiometry N is the number of molecules, sites or subunits per partner or assembly.

Source of the values: paper PMC12823590.
